In the nanobody polyreactivity screen of Harvey et al. (2022):

Test: yeast display, Sf9 membrane polyspecificity reagent, FACS + sequencing; frameworks hold sequencing errors
In short: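 Nanobodies from a synthetic yeast display library (Saccharomyces cerevisiae BJ5465), induced 36–48 hours with galactose, were stained 1 hour at 4 °C with 10% biotinylated, detergent-solubilized Sf9 membrane reagent, enriched on streptavidin microbeads, then FACS-sorted. Anti-HA (expression) and streptavidin (reagent binding) fluorescence set low and high (top ~1%) gates. Polyreactivity labels come from the gate of origin. Genes were colony-PCR amplified, MiSeq 2 × 250 sequenced and filtered by CDR length.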

Sequence | polyreactivity (PSR sort gate)
QVQLVESGGGLVQAGGSLRLSCAASGLIFYDNMGGYRQAPGKERELVAAISSSGGSTSYADSVKGRFTISRDNAKNTVSLQMNSLNPEDSAVYYCTVSPGVWRSIPLYYNLLYGYWGQGTQVTVSS | low polyreactivity
QVQLVESGGGLVQAGGSLRLSCAASVRTFYRYAMGGYRQAPGKERELDAGISWRGGSTYYADSVKGRFTISRDNAKNTVYLQMNSLKPEDTAVYYCNAVTTPARTRLFKTVPYEYWGQGTQVTVSS | high polyreactivity
QVQLVESGGGLVQAGGSLRLSCAASGRTFRTNAMGWYRQAAGKERELVAAIRASTGSTYYADSVKGRFTMSRDNAKNTVYLQMNSLKPEDTAVYYCAARLRRGLTATWYYYWGQGTQVTVSS | high polyreactivity
QVQLVDSGGGLVQAGGILSLSCASSGRTFYRYAMGWYRQAPGKERELVAAISATGCSTYYADSVKGRFTISRDNEKNTGYFQMNIMKPEDSAVDYCARGGTTLYWGQGTQLTVSS | high polyreactivity
QVQLVESGGGLVQAGGSLRLSCADSGQNAMGWYRQAPGKERELVAAISRGGDSTYYADSVKGRFTISRDNAKNSVYLQMNSLKPEDTAVYYCAASYYRRYGYNYWGQGTQVTVSS | high polyreactivity
QVQLVESGGGLVQAGGSLRLSCAASGSIFGSNAMGWYRQARGKERELVASISKRGGSTYYADSVKGRFTISRDNAKNTVYVQMNSLKPEDTAVYSCAARSYYNGKISRVGYWGQGTQVTVSS | high polyreactivity
QVQLVESGGGLDQAGGSLRLSCAASGSIFVIYAMGWYRQAPGKERELVAAIRFSTGSTYYADSVKGRFTISRDNAKNTVYLQMNSLKPEDTAVYYCAARTFKYGSYAYEYWGQGTQVTVSS | high polyreactivity
QVQLVESGGGLVQAGGRLLLSCAASGFTFYTYAMGWYRQAPGKERELVADISSGGSTNYADSVKGRFTISRDNAKNTVYLQMNSLKPEDTAVYYCSADYYFLDWYDYWGQGTQVTVSS | low polyreactivity
QVQLVESGGGLVQAGGSLRLSCAASGRTFRIYARGWSRQAPGKERELDAAITKRGGITYYADSVKGRFTISRDNAQNTVYLQMNSLKPEDTAVYYCAKAWKSWSRISKSTFYWTSGDYWGQGTQVTVSS | high polyreactivity
QVQLVESGLGLVQAGGSLRLSCAASGRIFYLNDMGWYRQAPGIERELVADMTRSGGTTYYADSVKGRFTISRDNEKNTVYLQMNSLKPEETSVYYCAAESRFRYVYGVGYRPYLYGYWGQGTQVTVSS | low polyreactivity
QVQLVESGGGLVQAGGSLRLSCAASGSPFSRNAMGWYRPAPGKEREMVAAISYSGGSTYYADSVKGRFTISRDNAKNTVYLQLNSLKPEDTAVYYCNTYIVNYSGQEMVYWGQGTQVTVSS | high polyreactivity
QVQLVESGGGLVQAGGSLRLICADSGSIFVYYLMVWYRQAPGKEREFVAAISYGGGSTYYADSVKGRFTISRDNAKNTVYLQMNSLKPEDTAVYYCNTDIYSDYVCEEYEYWGQGTQVTLSS | high polyreactivity
QVQLVESGGGLVQAGGSLRLSCAASGLTFKVNPMGGYRQAPGKERELVPAISSGDRTYYADSVKGRFTISRDNAKNTVDLQMNSLKPEDTAVYYCNARGHNRYGTLLGFGRVPGYDYWGQGTQVTVSS | low polyreactivity
QVQLLESGGGLVQAGGSLRLSCAASGRTSYIYSMGWYRKAPGKEREFVADITWSGGSTYYADSVKGRFTISRDNAKNTVYLQMNSLKPEDTAVYYCNADLLSWWGVEYYYWGQGTQVTVSS | high polyreactivity
QVQLVESGGGLLQAGGSLSLSSAASGITCDLYDMGWYRQAPGKERELVAAITDAHSTYYADSVKGRFTNSRDYAKNTVYLQMNSLKPEDTAVYYCAADWYLYLDDKYDYWGQGTQVTVSS | low polyreactivity
QVQLEESGGGLVQAGGSLRLSCPASGRTSYGNTMGTYRQAPGKERELVATISGGGSTNYADSVKGRFTISRDNAKNTVYLQMNSLKPEDTAVYYCAARRYPFPGYRYYFWGQGTQVTVSS | high polyreactivity
QVQLVDSGGGLVQAGGSLRLSSAASGFTFVAYAMGGYRQAPGKERELVATITKGGGGTYYADSVKGRFTISRDNAKNTVYLQMNSLKPEDTAVYYCAADRQYRGRTRYVYAPLYYWGHGTQVTVSS | high polyreactivity
QVQLVESGGGLVQAGGSLRLSCAASGRTFGRNAMGWYRQAPGKERELVAAINSGGSTKYADSVKGRFTISRDNAKNTVYLQMNSLKPEDTAVYYCARRGGFSYYYWGQGTQVTVSS | high polyreactivity
QVQLVESVGGLVQAGGSLRLSCAASGSIFGPNAMGWYRQAPGKERELVAAISLSTGSTYYADSVKGRFTISRDTAKNTVYLQMNSLKPEDTAVYYCAAYYVTPIYYYWGQGTQVTVSS | low polyreactivity
QVQLVESGGGLVQAGGSLRLSCAASGSTFGGNAMGWYRQAPGKEREFVAAIRFSGGSTYYADSVKGRFTISRDNAKNTVYLQMNSLKPEDTAVYFCAKRGYGHLIPIAYEYWGQGTQVTVSS | low polyreactivity
QVQLVESGGGLVQAGGSLRLSCAASGLTFAVYAMGVYRQAPGKEREVVAAINWSGGSTSYADSVKGRFTISRDNAKNTVYLQMNSLKPEDTAVYYCAAVPGSYSYWRVWYGYDYWGQGTQVTVSS | high polyreactivity
QVQLVESGGGLVQAGGSLRLSCAASGRTFTRYAMGWYRQAPGKERELVAAITSDGTTYYADSVKGRFTISRDNAKNTVYLQMNSLKPEDTAVYYCNAQYKFPDLGGYDYWGQGTQVTVSS | high polyreactivity

Sequence | polyreactivity (PSR sort gate)
QVQLVESGGGLVQAGGSLRLSCAASGRIFGINAMGWYRQAPGKERELVAAITWSGDGTYYADSVKGRFTISRDNAKNTVYLQMNSLKPEDTAVYYCARYDYWGHGTQVTVSS | low polyreactivity
QVQHVESGVGLVQAGGSLRLSCAASGITFLDTVLGWYRHAPAKEWELVADINSIGTSTSYADSVKGRFTISRDNAKNTVYLQMISLKPEDTADYYCAATSYARLAYYYGGQGTQVTVSS | low polyreactivity
QVQLVESGGGLVQAGGSLRLSCAASGRIFTGYAMGWYRQAPGKERELVAAISRGGSTNYADSVKGRFTISRDNAKNSVYLQMNSLKPEDTAVYYCAAGVHWDRGDYWGQGTQVTVSS | low polyreactivity
QVQLVESGGGLVQAGGSLRLSCAASGRIFGRNAMGWYRQAPGKERELVAAISWRGGNTYYADSVKGRFTISRDNAKNTVYLQMNSLKPEDTAVYYCNTVQYRNEMGYWGQGTQVTVSS | high polyreactivity
QVQLVESGGGLVQAGGSLRISCAASGSIFRYYYMGWYSQAPGKERELVAAITYSGGGTYYADSVKGRFTISRDNAKNTVYLQMNSLKAEDTAVYYCAVRRVGSIYIDRYIYVVSDYFYWGNGTQVTVSS | low polyreactivity
QVQLVESGGGLVQAGGSLRLSCAASGRTFFGYAMGWYRQAPGKERELVAAISGGGRTNYADSVKGRFTISRDNAKNTVYLQMNSLKPEDTAVYYCAARLVKYFRPYDYWGQGTQVTVSS | high polyreactivity
YYADSVKGLFTISRDNAKNTVYLQMNSLNPEDTAVYYCNAGYYISFNPYDYWGQGTQVTVSS | low polyreactivity
QVQLVESGGGLVQAGGSLRLSCAASGRTFNGYVMGWYRQAPGKERELVAAITNRDGSTYYADSVKGRFTISRDNAKNTVYLQMNSLKPEDTAVYYCAAPVWLWADRYDSWGQGTQVTVSS | low polyreactivity
PVQLVESGGGLVQAGGSLRLSCAASGSIFGYYAMGWYRQAPGKERELVAAISSSGASTYYADSVKGRFTISRDNAKNTVSLQMNSLKPEDTAVSYCIAARRYPTRGGYWGQGTQVTVSS | high polyreactivity
QVQLVESGGGLVQAGGSLRLSWAAYGRTILWYTMGWYRQAPGKERDLVADISSSGGTTFYADSVKGRFTISRDNAKNTVYLQMNSLKAVDNAVYYCKRNARKLRTVHSSVVGLDYWGQGTQVTVSS | low polyreactivity
QVQLVESGGGLVQAGGSLRLSCAASGRTFTGYAMGWYRQAPGKERELVASISGSGGRTNYADSVKGRFTISRDNAKNTVYLQMNSLKPEDTAVYYCAARYRTWFGYWGQGTQVTVSS | high polyreactivity
QDQLVESGGGLVQAGGSLRLSCAASGFIFGRYAMGWYRQAPGKERELVATISRCGGSTYYADSVKGRFTISRDNAKKTVYLQMNSLKPEDTAVYYCAATYYQLFGTILHGYWGQGTQVTVSS | low polyreactivity
QVQLVESGGGLVQPGGSLRLSCAAYRSTFTDYDKGWYRQAPGKERELVAAITSGGSTNYADSVKGRFTISRDNAKNTFYLQLNSLKPEDTAVYYCAAADSDRKYDYWGQGTQVTVSS | low polyreactivity
QVHLQGSGGGLVQAGGSLRLSCAASGYIFQNDPMGWNLQAPGKERELVAGIDNGTSTNYADSVNGRFTISRDNAKNTVYLQMNSLKPEDTAVYYCSAAGQADDTLGYWGQGTEVTVSS | low polyreactivity
QVQLVESGGGLVQAGGSLRLSCAASGSTFLPNAMGWYRQPPGKERELVAAITNSGGNTYADSVKGRFTISRDNAKNTVYLQMNSLKPEDTAVYYCNARFSPTGWARGNDYWGQGTQVTVSS | low polyreactivity
QVQLVESGGGLVQAGGSLRLSCAASGRILGRNAMGWYRQAPGKERELVAAISSGGNTYYADSVKGRFTISRDNAKNTVYLQMNSLKPEDTAVYYCNTGTYKDWGQGTQVTVSS | low polyreactivity
QVQLVESGGGLDQAGGSLRLSCAASGSIFTYYAIGWYRQAPGKERELVADISQRGGSTYYADSVKGRFTISRDNAKNTVYLQMISLKPEDTAVYYCATRARYTWRAFEYWGQGTQVNVSS | low polyreactivity
QVQLVDSVGGLVQAGGTHRLSCAASGSIFEIYAMGWYRQAPGKERELVASITSSGGSTYYADSVKGRFTISRDYAKNTVYLQMNSLKPEDTAVYYCATDKRYGRTVRMDYWGQGTQVTVSS | low polyreactivity
QVQLVESGGGLVQAGGSLRLSCAASGSTFWYYTMGWYRQAPGKERELVAAITESGGGTYYADSVKGRFTISRDNAKNTVYLQMNSLKPEDTAVYYCAAYSRFTSDYWGQGTQVTVSS | high polyreactivity
QVQLVESGGRLVQAGGSLRLLGAASGRIIYYNAMGWYRPAPGKERELVAAISSIGGSTYADSVKGRFTISRDNAKNTVYLQMNSLKPEDTAVYYCAADGFKRLYTQVAHVRYDYWGQGTQVTVSS | low polyreactivity
QVELQVSGGGLVRAGGSLRLSCAASGNIFDADIMGWYRQAPGKERELVASITGGGSTSYAESAKGRFTISRDNAKNAVYLQMNSLKPEDTAVYYCNAYFIYEGGWYYKAQYDYWGQGTQVTVSS | low polyreactivity
